From publication PMC3592467 (Nucleic Acids Research, 2012)

Target: T1, MBD3-GFP (UniProt O95983 1-291)
T1 sequence: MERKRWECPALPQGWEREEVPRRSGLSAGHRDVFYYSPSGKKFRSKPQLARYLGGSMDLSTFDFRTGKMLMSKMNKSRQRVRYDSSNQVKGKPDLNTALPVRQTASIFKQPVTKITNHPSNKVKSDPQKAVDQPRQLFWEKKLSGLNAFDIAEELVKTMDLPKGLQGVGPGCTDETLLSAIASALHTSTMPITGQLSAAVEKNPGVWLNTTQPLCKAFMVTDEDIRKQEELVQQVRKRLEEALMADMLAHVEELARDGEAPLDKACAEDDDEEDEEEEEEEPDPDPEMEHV
Experiment: affinity purification with mass spectrometry

Row | Binder | stoichiometry N
1 | ZMYND8 (natural protein) MDISTRSKDPGSAERTAQKRKFPSPPHSSNGHSPQDTSTSPIKKKKKPGLLNSNNKEQSELRHGPFYYMKQPLTTDPVDVVPQDGRNDFYCWVCHREGQVLCCELCPRVYHAKCLRLTSEPEGDWFCPECEKITVAECIETQSKAMTMLTIEQLSYLLKFAIQKMKQPGTDAFQKPVPLEQHPDYAEYIFHPMDLCTLEKNAKKKMYGCTEAFLADAKWILHNCIIYNGGNHKLTQIAKVVIKICEHEMNEIEVCPECYLAACQKRDNWFCEPCSNPHPLVWAKLKGFPFWPAKALRDKDGQVDARFFGQHDRAWVPINNCYLMSKEIPFSVKKTKSIFNSAMQEMEVYVENIRRKFGVFNYSPFRTPYTPNSQYQMLLDPTNPSAGTAKIDKQEKVKLNFDMTASPKILMSKPVLSGGTGRRISLSDMPRSPMSTNSSVHTGSDVEQDAEKKATSSHFSASEESMDFLDKSTASPASTKTGQAGSLSGSPKPFSPQLSAPITTKTDKTSTTGSILNLNLDRSKAEMDLKELSESVQQQSTPVPLISPKRQIRSRFQLNLDKTIESCKAQLGINEISEDVYTAVEHSDSEDSEKSDSSDSEYISDDEQKSKNEPEDTEDKEGCQMDKEPSAVKKKPKPTNPVEIKEELKSTSPASEKADPGAVKDKASPEPEKDFSEKAKPSPHPIKDKLKGKDETDSPTVHLGLDSDSESELVIDLGEDHSGREGRKNKKEPKEPSPKQDVVGKTPPSTTVGSHSPPETPVLTRSSAQTSAAGATATTSTSSTVTVTAPAPAATGSPVKKQRPLLPKETAPAVQRVVWNSSSKFQTSSQKWHMQKMQRQQQQQQQQNQQQQPQSSQGTRYQTRQAVKAVQQKEITQSPSTSTITLVTSTQSSPLVTSSGSMSTLVSSVNADLPIATASADVAADIAKYTSKMMDAIKGTMTEIYNDLSKNTTGSTIAEIRRLRIEIEKLQWLHQQELSEMKHNLELTMAEMRQSLEQERDRLIAEVKKQLELEKQQAVDETKKKQWCANCKKEAIFYCCWNTSYCDYPCQQAHWPEHMKSCTQSATAPQQEADAEVNTETLNKSSQGSSSSTQSAPSETASASKEKETSAEKSKESGSTLDLSGSRETPSSILLGSNQGSDHSRSNKSSWSSSDEKRGSTRSDHNTSTSTKSLLPKESRLDTFWD | ~0.01 relative to MBD3
2 | ZNF592 (natural protein) MGDMKTPDFDDLLAAFDIPDPTSLDAKEAIQTPSEENESPLKPPGICMDESVSLSHSGSAPDVPAVSVIVKNTSRQESFEAEKDHITPSLLHNGFRGSDLPPDPHNCGKFDSTFMNGDSARSFPGKLEPPKSEPLPTFNQFSPISSPEPEDPIKDNGFGIKPKHSDSYFPPPLGCGAVGGPVLEALAKFPVPELHMFDHFCKKEPKPEPLPLGSQQEHEQSGQNTVEPHKDPDATRFFGEALEFNSHPSNSIGESKGLARELGTCSSVPPRQRLKPAHSKLSSCVAALVALQAKRVASVTKEDQPGHTKDLSGPTKESSKGSPKMPKSPKSPRSPLEATRKSIKPSDSPRSICSDSSSKGSPSVAASSPPAIPKVRIKTIKTSSGEIKRTVTRILPDPDDPSKSPVGSPLGSAIAEAPSEMPGDEVPVEEHFPEAGTNSGSPQGARKGDESMTKASDSSSPSCSSGPRVPKGAAPGSQTGKKQQSTALQASTLAPANLLPKAVHLANLNLVPHSVAASVTAKSSVQRRSQPQLTQMSVPLVHQVKKAAPLIVEVFNKVLHSSNPVPLYAPNLSPPADSRIHVPASGYCCLECGDAFALEKSLSQHYGRRSVHIEVLCTLCSKTLLFFNKCSLLRHARDHKSKGLVMQCSQLLVKPISADQMFVSAPVNSTAPAAPAPSSSPKHGLTSGSASPPPPALPLYPDPVRLIRYSIKCLECHKQMRDYMVLAAHFQRTTEETEGLTCQVCQMLLPNQCSFCAHQRIHAHKSPYCCPECGVLCRSAYFQTHVKENCLHYARKVGYRCIHCGVVHLTLALLKSHIQERHCQVFHKCAFCPMAFKTASSTADHSATQHPTQPHRPSQLIYKCSCEMVFNKKRHIQQHFYQNVSKTQVGVFKCPECPLLFVQKPELMQHVKSTHGVPRNVDELSSLQSSADTSSSRPGSRVPTEPPATSVAARSSSLPSGRWGRPEAHRRVEARPRLRNTGWTCQECQEWVPDRESYVSHMKKSHGRTLKRYPCRQCEQSFHTPNSLRKHIRNNHDTVKKFYTCGYCTEDSPSFPRPSLLESHISLMHGIRNPDLSQTSKVKPPGGHSPQVNHLKRPVSGVGDAPGTSNGATVSSTKRHKSLFQCAKCSFATDSGLEFQSHIPQHQVDSSTAQCLLCGLCYTSASSLSRHLFIVHKVRDQEEEEEEEAAAAEMAVEVAEPEEGSGEEVPMETRENGLEECAGEPLSADPEARRLLGPAPEDDGGHNDHSQPQASQDQDSHTLSPQV | ~0.01 relative to MBD3
